# Measured values taken from the domain aggregation screens of Martell et al. (2025).
# Experiment: soluble fraction after stress (log2 fold change); higher = more stays soluble; pooled small domains, quantitative proteomics
# Conditions: stress: 50 degC
# How it was run: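 The measure of aggregation propensity here is the base-two logarithm of the fold change in the soluble amount of each protein after stress. A higher value means more of that protein stays in solution. Stress was applied at 50°C to pooled libraries of small protein domains, read out by high-throughput quantitative proteomics.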
row,Sequence,soluble fraction (log2)
1,HMKDKSEKTKKLIFEAAFKIIREEGFSELSANKIAQVASVSKGVIFHHFSQMDDLYLFMLDTL,0.255
2,HMVSSAEQQARDKESGMILVQEAGGPDKARALVEKMRQDIRNPALDGTRRQMLRGHVARIELALAELETG,0.00436
3,HMESLGEKIKNIRISNNLKQSELADILHISEKTISSWENNRTTPDLNMIYKISNYFKKSFYYLISDDYI,-1.02
4,HMAAVPYQVKITTEDLRIRTGPGTNHDFTGQYTGKGVFTIVEESEGSGAPIWGRLKSGAGWIGIDPSWSVR,-0.706
5,HMVHSEDLQDHKYVSQLGEVFLKENPNYENIKKSWGDHMVVIKKFGRYPHRNKILNRKSTPEELEFLKG,-0.0131
6,HMAAEEAFPGGRIVQNAEENRLQILFDEIPGEDVRAALKSHGFRWSPKNKAWQRQLTQNAEYDARRILGI,-0.00473
7,HMLPYKGTVAVSLAVLHKAVGVGTADMLKAVGTLRQGTEVTVTGRNGPFAQLKNGLWMKESFLE,-1.04
8,HMIGHIGSAVMLNAKLRPRLPLLHVLALTQSLGERLSAAEAQPEVYRWSDPGQSRVIAEFEGGRLTRWRLE,-2.09
9,HMNSSTVDLAKEFLIDLLSSVEKMPASEVQEEAKNAGYSVASIRRAKDNLNIKPFKDGSAWYWKLPSIFK,-0.114
10,HMDVAWDAIKAKLKEVVDAEDKAHPLNDDQIVKALGESGITIARRTIAKYRDLLGIPPARKRKA,0.0649
11,HMIPSLTITVNEHSRQITRGTSLYTLRDALYPDADVLVVNGHPADSDRHLEEGDAVVLIRRGA,-0.275
12,HMSPQPPNQEAVRTRILDQAAHLFLTIGYAETTVRRIAGAVGIKAASLYHHFGSKDEVFESILIR,0.0413
13,HMARAPIYPDGLTQREVEVLSLVAAGKTDREIAEELFIALRTVTTHVGNILNKIGAANRTEAAGYATRQGL,-0.459
14,HMEKLNYSISNEEQGQRIDKYLSLMIEGKSRSFIQGLIDDKKVMANGKVIKSNYKLKNNDEITVEMPDPI,-0.155
15,HMAGATDTVRNLLERQIREGELLPGQRLPTEPELAARLGVSRNSLREALQSLEDSGLIVKRHGIGTFVTE,0.0848
16,HMSSIDLTARSGRAALKHRLSLLGYEFSKIELETLYVRFIELADEKKLLHDEDLIELVKEKN,-1.37
17,HMNNILNYTIAELMEILKIDDLETENVINSSNNLINKSINENNFPLAEFYEDVKNNLIEFIETFDS,-0.632
18,HMHFENEETFVLPLVREGFSEQQQLEMVDRLLFDANTDNPRWIIDWMASELPSTQRELLLDLEKRLAEVRS,-0.117
19,HMDYPFQYFNYSHLRILGVPAQLIKAVRKAPTLDAIEQLSGLSEKTKLWLLELATEPKLEDVLFDPGR,-1.44
20,HMIDDNTIIQIGDSYSKSIRLLGEPIELKNRSLNQKSYFMAVYDFKGRRYRLFFENDVLFDILRD,-1.86
21,HMTNIELYQRLLNLGFTPAQAKILLVQYDETRLTDNLNYVDFKKQQGNIENLPAYTTTIIKKDVRL,-0.389
22,HMSLRGEKTYDEAHQKLIKSAVELFKNPLVSPEKITVSQIAKHAGVSVATAYNHFPENKLDIYGSIF,-0.071
23,HMETVVTEVKTTDVVNIRTSDSETADKLSKAAIGDTFPLLEERGNGWSKVAYNGEEAFIKSDYLEPSKTE,0.42
24,HMSGIESIVIPLKGLDFDMISSTLTPQLKQAIKYDKQSDSIILVGTNAKVNIIAKQVNAMVEVYKLKT,-0.444
25,HMKQDYYSILGVMRDASQEEIKRAYLDAAQRLHPDRNTSAGDTEMFLDVQQAYEVLSNPKRRAQYDATLP,0.148

row,Sequence,soluble fraction (log2)
1,HMADLIIMSSDATEKQVDKVINKIKNMGFNVNISKGTEKTIIGIIGDTRGISDEVFKIMPGVIEVISILRD,-0.39
2,HMNRKILVLLAGKEQITDNVSVMQSIHRYAFINTATINKAQHEILIEKEEIRQEALTLIHEFLK,-0.0593
3,HMQQISDPQVLRPMAEEVLHQSQKVVQDYKGGNKNAFHALVGQMMKKTQGKGNPQVIGQVLSELLDE,0.476
4,HMKTLNKRQQDIINLAREEGFVTVEHLSEYFKVTQQTIRRDLGYLSENLYLARTYGGAFFQS,-0.872
5,HMSKQDRRIRRTRRLLKESLIQLMQEKEFMNISVREVTERADLNRGTFYLHYQDTRHLLQDIENETL,-3.25
6,HMLLRVGGLVKDGSVRTDNDLGIKFIIEDNLAEVSVLYNGILPDLFREGQGVIAEGKFIDNIFIANEIVA,-0.519
7,HMDENILKTRIEDLDLSVRTIKALTGASIRTVSGLARKKESDLLEISGLGDKGIQEIKRALGSLGITL,0.0868
8,HMKSARDDILSALDKAGEPLSMKDIAELSGRKLSTLRAQMTRLVAEGAVQATAAAHSPDRKYRK,-0.0859
9,HMQQEAVSGKLLQLDLAKKEGRLSTDLGREVLFHIPKPELFVHLSVGQRIIIKLDAGQEAVGV,-0.0409
10,HMVKDIEFSLPLEQDYYKVLISVKDSQGKRQVYEELHRAGDTVYAAVRYYGSGELEIHLNGKFYKTIK,-0.521
11,HMLPLIEVPAVTGKYLTKAKSALKDAGLDTGDIKRVEHEEHGENYVLKQDPPAGTKVPFGTTVSLTVVAP,0.35
12,HMIDLPEAFIQQLKEAVDVGDVTGLRELLGQLRRRYPQQSALSDEAERLLREFDFERLAQLFEGLD,-1.42
13,HMSSRSLTYSDFIERVDAGQVDAVTLDGERIVIRAKDGNTYVAIKPQGEDVTGSLTRDLIAKGVDVEAEPQ,0.0928
14,HMLTTVAAQRAALHQEEDITKLREIILKLVPFWGLDGGAYADKETSIQLERQYRESFDQAVSAARRSGQA,-0.303
15,HMQDPTAVISRVLEERKHQPGALLPILHGIQDALGYVPREAVAQIAQALNLSRAEIHGVVSFYHHFR,-0.547
16,HMVADEGELLAIAREVVAANPKVFEDWKAGKQSAAQWFVGQIMKRTRGRANPQLALKLVTQALEEHAR,0.0775
17,HMGNEVMYRQDLSEQELLSFIKKYTGQDEVTHIVVGAPKQRDNTPSPVETKITPFVVQLKAQFPDVNVV,0.115
18,HMKVTADVVVADRLKAWIISNNLKPGDRLPTEQKLSEELGVARHTLREGIKRLSQLGIIGSRTGSGMYVKN,0.0235
19,HMHQVHKIDGVKYYLHLVEKGNTLYGISKQYNVSVERIEKANTEALSDGLKENQTLLIPVTSDNKKT,0.0414
20,HMAQTTKWREIHKVKRKETIFGIARDNGLTVDELIEANPEMTKPGYELKKGDFIYIPFPSKNIDTNAGTQT,-0.157
21,HMSNLENSLNESLSLLKSNKYNEALEILKKIEIEDSRVFFLLGTIYSVMKNINLGEEFLIKASK,-1.48
22,HMKSLLTARQLEVFEIARNKGYWTTPRKISLVELSKLLDISKSTLSVLLHSIEGKVMEEFYEEIRQ,-1.81
23,HMTMGAAEAQALKDEALELYRTGGTQEDVVRAIEMYEQAAEAGNAQAASDLAYLKANGVYETAMNN,0.268
24,HMAIRLIKASREFNVGISTIVEFLEKKGHAIDSDPNSKIPDELYQLIEKEFQTEGSVKKAAKQI,-0.0914
25,HMSQNVSFTVDSGQAGLRLDVFLSQADPAFSRSQIKYAIEEGDVTVNGKEPKVSQHLKDGDIVELHLE,-0.0973

row,Sequence,soluble fraction (log2)
1,HMTRVDKLQTWLSLPREQRDWDEGALMLLQLTGNKIMYRNLSVNPEGKANFIEGKLQQYLEFRLA,-1.26
2,HMEPQSRTAYRLIEAMIVTHELPPGSRISEASLSAKLGIGRTPIREALQRLSFEGTVKIVPRSGAFVSEI,-2.76
3,HMQLLDIGSAVRIIREPYFGRLGTVVELPPELMEIESGTHARVLKAKLDDGTVAVVPRANVEIIVE,-0.171
4,HMHREITGSLAERNGRYTAILNLYDEDGKRRQKSIALGIPVKGNKRKAQAQLEELKRAYSLGLPQ,-0.115
5,HMELADLPSAQIREILAYVYRAPLEKRRDPSIHWLLIAAHKLTLPLLDRLDPADARALGERYGADYP,0.132
6,HMELSTQERIQILLEILNQREIISFSQTLRKKEGKKGVVVTFLASLELAKDGYVTLVQNKSDQIYLRSN,-0.7
7,HMPLLELPDDFYPAWKPKTIYVQGQRIMLDGVAFEAKWWTQGDNPASGQADPGSSPWRTLTQEEIAKLLE,-0.901
8,HMTQSQSLQSQFEQLEKAYQDNLHLLSPKQKLIIQEAGKIIQQLPQQAQIQAKVNLYQSLSAEISKESQQ,0.118
9,HMSEMDNMEWVREQYFQNMIYEIGEWVRDKKTGIVGEVVKRGTNYVTVVQEDFSLHKIWLEDLETTEK,-0.821
10,HMPHITDAEWEVMRVVWANHHVTSKEVISILEDKMNWKATTIKTLLGRLVEKGALSTEQDGKKFIYTAR,-1.5
11,HMAGLELVVTREQAGRTVKSLLRGELGISTALMGRLKRTGTGLTVNGTRVFTNAVLREGDRLAVDLDAAE,-0.606
12,HMDLANRSLDRGITILESLARNGASSLADLHRDSGIAKSTIRRLLGTLIQHRLVRRSVADGLYRVTIPLPA,-1.18
13,HMDNMTEMQKAVTALIEKSGGSIDNLSVIYDHLKKKYPSFDLKDYGYSRFSSFLRSMENIMVRGNAVTLRS,0.0337
14,HMFPELDEEEQKITKLLQAQNDLPANIIAVKTALNIGTTQAKLFSLEMKGVVKPYAGGFYHLL,-0.25
15,HMSKQQFLDELAARLREEGAELLVAENLNFYRSYIEEEVAKGRSEEEVLAELGNPALIARSILDAAGF,-0.153
16,HMTFSDKIRELRKQKGVSQAVVAEYLGITKQAYSLYETGKREPDFDSLLKLAEYFGTDTDSLLY,-0.309
17,HMSIAEMSGARKSAILLLALDEDSAAEIFKYLSAGEVQEISMEMAKLNQVSHDDMKAVLEAFHKETEEFV,-0.542
18,HMIRQGTKQALLIEMLQRPEGASITEIVEATSWQAHTARGAISGALKKKLGLPITSEKHPERGTVYKL,-0.685
19,HMKAETILAIPENQPERLFPNNEDEARKIYRDLAREWHTDRNKSPKAQDVFSHLSKLYDIVIDRIKNKTWT,0.152
20,HMQERTVVKGVVVQVSRDEAYVDIGYKQEIPVSKRDLAVPAPDDARDVVKVGDEIDVYIKSLGGDNGG,-0.00098
21,HMLKIAENIYQRRKEKNITQEELADFMMVTKASVSKWETGQSYPDILLLPKLATFFNVTVDELIGYEPQ,-1.2
22,HMDASKVKIEDLGLSTRTENALVAASIRTAGGLARKSEMDLLSTDGLGEKGITEIKKALSDLGLELK,0.285
23,HMVWMIEKDQSVILVNKLERIQVEALGKALENGNFGDRIRVINNKSGQKLLGIVESEKKIQIISKI,-2.44
24,HMVILPGEKMVVKIVQPGKEKGQGVGYLADGTMIVVDSGDKMIGQDVPTEITRVFQTVAGKMLFAVPVD,-0.426
25,HMFRMTPQRMAILAEVQNAERHLTAAEIYERVRRKYPTIAYGTVYRTLHLLAKHGLIQEFPFGDNASLFDR,0.0678
